Laboratory results from the supplement of paper PMC11865577.

Key:
Test in all cases: pull-down binding Z-score (relative to library population); higher = stronger binding
TO-N3 (biotin conjugate) = details: RNA library: Library-2
In short: (§1)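 Biotin-conjugated small molecule (100 pmol) on streptavidin beads was incubated with 1 μg of heat-folded Cy5- or Cy3-end-labelled RNA library in phosphate/NaCl/KCl buffer at 25 °C for 60 min. Following three washes, RNA was eluted with hot SDS and hybridised at 55.5 °C for 20 h to a DNA barcode microarray. The binding value is a Z-score computed from the library mean and standard deviation, after subtraction of beads without compound and averaging of barcoded replicate probes with the highest and lowest excluded.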

[1] = system: G-clamp-N3 (biotin conjugate); details: RNA library: Library-1 (pre-miRNA loops + repeats)
In short: as §1

[2] = system: TO-N3-2 (biotin conjugate); details: RNA library: Library-2
In short: as §1

[3] = system: TO-3-N3-2 (biotin conjugate); details: RNA library: Library-2
In short: as §1

[4] = system: TO-3-N3 (biotin conjugate); details: RNA library: Library-2
In short: as §1

Sequence	pull-down binding Z-score (TO-N3 (biotin conjugate))	pull-down binding Z-score [1]	pull-down binding Z-score [2]	pull-down binding Z-score [3]	pull-down binding Z-score [4]
GGAGCUCAGCACCUGCCUGCCACCCACGCAGACCAGCCCCUGCUCUGUUCCCACAG [hsa-mir-4648]	1.56	-0.622	1.9	0.329	0.85
GGAGCUCUGUCCUGUCUCACUCAUUGCUCC [hsa-mir-6749]	-0.473	-0.199	0.177	-0.272	-0.331
GGAGCUCUGUGCCUUUGGGUCCUGGUGAGCUCU [hsa-mir-6070]	0.413	0.246	0.681	-0.129	0.271
GGAGCUGGCUGCUGGCCUCAGUUCU [hsa-mir-5001]	0.0865	-1.38	1.05	-0.449	-0.269
GGAGGCACUGCCAGGGCUGCCCAC [hsa-mir-1202]	1.21	-0.43	2.09	0.277	0.521
GGAGGCAUGAAUGAGCCAUCUUUCCAAUGCCUUUC [hsa-mir-4743]	-0.118	-1.03	0.952	-0.332	-0.573
GGAGGCCCCGCCCUGCUGCCGACCCUGUGGAGCGGAGGGUGAAGCCUCC [hsa-mir-3180-5]	1.1	0.844	1.98	0.0715	0.326
GGAGGCCCCGCUCUGCUGCCGACCCUGUGGAGCGGAGGGUGAAGCCUCC [hsa-mir-3180-4]	0.553	1.15	1.24	0.118	0.3
GGAGGGUGAGCUUUCUGAAAACCCCUCC [hsa-mir-188]	0.328	0.536	-0.0757	0.358	0.345
GGAGUCCUCUAGACACC [hsa-mir-6510]	0.373	-0.716	-0.175	-0.348	0.483
GGAGUUGAUGCACAGUUAUCCAGCUCC [hsa-mir-337]	-0.495	-0.406	-0.0382	-0.326	-0.577
GGAUAAGAAUCAGUCAC [hsa-mir-217]	-0.415	-0.462	-0.147	0.259	-0.334
GGAUAGAAACUAUUAUUCUAUUC [hsa-mir-664a]	-0.784	-0.818	-1.38	-0.303	-0.357
GGAUCAUGUUUGCCCCCGUGGACAGCUCUCUGGUGUGCUCCUCCUGCCAUCCUGCCCACCCCUGCAUAAUGCUGCUUC [hsa-mir-6809]	1.02	-1.25	1.5	0.384	0.306
GGAUCCCAGAUCAAACCAGGCCC [hsa-mir-331]	-0.177	-0.859	0.63	-0.114	-0.36
GGAUGAAAGUCAAAGAAUCC [hsa-mir-1262]	1.17	-0.564	0.0488	0.0666	1.25
GGAUGGCCAGGGAAGUAUGCCGGGCCUUGGCAUUUC [hsa-mir-7159]	0.814	2.04	1.9	0.175	0.218
GGAUGGGAGACCUGACCCAUCC [hsa-mir-5195]	-0.0467	0.74	-0.332	-0.208	-0.0606

Sequence	pull-down binding Z-score (TO-N3 (biotin conjugate))	pull-down binding Z-score [1]	pull-down binding Z-score [2]	pull-down binding Z-score [3]	pull-down binding Z-score [4]
GGAUGUGUUGACCCCUGAAGUGGUUCUGAUGACCUUUCC [hsa-mir-6883]	0.387	-1.11	0.938	-0.03	0.00863
GGAUUUGCUUCCUGUCACAAAUCA [hsa-mir-23a]	0.271	-1.51	-0.188	-0.241	0.391
GGCACCUACGAUACCCAGUGCC [hsa-mir-3116-2]	-0.383	-0.645	0.165	-0.0787	-0.264
GGCACUGGGUAUCGUAGGUGCC [hsa-mir-3116-1]	0.377	2.06	0.718	0.127	0.661
GGCAGAAAUGUC [hsa-mir-8053]	-1.13	0.69	-1.13	-0.375	-0.653
GGCAGGAGGCAGUGAAGUAACUUGC [hsa-mir-3934]	1.43	-0.848	1.2	0.583	1
GGCAGGGGGAGCUGCAGGGCUAUGGGAGGGGCCCCAGCGUCUGA [hsa-mir-1233-2_1233-1]	3.66	2.96	3.08	2.98	3.54
GGCAGGGUCCUCCAGCUCAUUCCUCCUGCC [hsa-mir-6829]	0.491	0.723	0.71	0.56	0.564
GGCAGGUGCCUCCGUGUUGCCGAACCCUCCU [hsa-mir-6761]	0.998	-0.447	1.74	0.116	0.358
GGCAGGUGUGGUUGGAGGAAGCAGCCUGAACCUGCC [hsa-mir-6778]	0.227	0.663	0.361	0.333	-0.114
GGCAGUGGUUCUAAAAGCUGUC [hsa-mir-3618]	0.603	0.498	0.117	-0.198	0.861
GGCAUCAGAGGACAGCCGCCUGGUGCC [hsa-mir-4641]	0.327	0.915	0.46	-0.0706	0.287
GGCAUCCCCAUUGCU [hsa-mir-4304]	0.343	-0.987	0.191	-0.113	0.527
GGCAUCUAGCACAGGCGGUAGAUGCU [hsa-mir-4486]	-0.481	0.983	-0.132	-0.34	-0.546
GGCAUCUAGGCUGUGCACAGUGACGCC [hsa-mir-4749]	-0.376	0.317	0.336	-0.421	-0.604
GGCCACCCAGGGAGUAAGUAGCC [hsa-mir-4480]	2.09	0.515	1.42	0.908	2.34
GGCCAUCUGCUAUUCGUCCACCAACCUGACUUGAUCC [hsa-mir-7111]	0.256	0.0541	0.477	0.0293	-0.0213
GGCCAUCUGGCC [hsa-mir-4252]	-0.667	0.63	-1.01	-0.435	-0.403
